In the supplement of paper PMC9170038:

Tested on: MS2 coat protein
Assay: apparent KD of MS2 coat protein; designed switch direction (-1 OFF switch, 1 ON switch): -1; higher = weaker reporter binding
How it was run: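 Each step of the titration lasted 0.8–1.5 h at the lowest concentration and 10–20 min at the highest. The protein, SNAP-549-labelled MS2 coat protein, went from 0.7 or 1.5 nM doubling to 3 µM over RNA switches transcribed on Illumina chips by stalled E. coli RNA polymerase. Normalised cluster fluorescence was curve-fitted, and the per-design median over clusters is given as apparent KD.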

[1] = input ligand: microRNA oligo, concentration not stated
[2] = Eterna round: R95, input ligand: microRNA oligo, concentration not stated
[3] = Eterna round: R95, input ligand: FMN 200 uM
[4] = Eterna round: R95, input ligand: none

Sequence | apparent KD of MS2 coat protein (input ligand: FMN 200 uM) | apparent KD of MS2 coat protein [1] | apparent KD of MS2 coat protein (input ligand: none) | apparent KD of MS2 coat protein [2] | apparent KD of MS2 coat protein [3] | apparent KD of MS2 coat protein [4]
GUACUGAAGCUUUGCUUUAAUCGUACAUGAGGAUCACCCAUGUAGGAUAUGGUAGGCUUUGCUUACCAGAAGGACAGAGUGAUC [JL EXNG3 1.24] (Eterna round: R96, puzzle: Exclusion NG 3) | 217 nM | 124 nM | 136 nM | – | – | –
GCACGGAGUGUAGGAUAUUAGUGCGAUUAGCACUGAGAAGGACAUGAGGAUCACCCAUGUGCUACCUCAAUUAGCCUUCCGUGC [Eli exng1 - 035] (Eterna round: R96, puzzle: Exclusion NG 1) | 21.8 nM | 16.5 nM | 19.7 nM | – | – | –
CCGUUCCGUGUAGGAUAUUGGCCUACCACGGGCCGAGAAGGACAUGAGGAUCACCCAUGUAUGCUAUUAUCGCGCGUGGCGCCC [Design 99] (Eterna round: R96, puzzle: Exclusion NG 1) | 24 nM | 15.4 nM | 21.8 nM | – | – | –
UCGAUGUGAGGAUAUAACAGGACGAACUCUUAAUAGUACGGUUAGAAGGCACAUGAGGAUCACCCAUGUGACGA [EX4 B.27] (Eterna round: R97, puzzle: Exclusion 4) | 40.1 nM | – | 17.7 nM | – | – | –
GCACCACGAGGAUAUACAUGAGGAUCACCCAUGUGAUCAGCAGUCCUCGGACUGCAAUGUAGAAGGCGUGGUGC [E3/1-A1] (Eterna round: R97, puzzle: Exclusion 3) | 24.3 nM | – | 776 nM | – | – | –
CUUUUGUGAGGAUAUCAGUAGUAAAAAAAUAUAAUUACUACUGAGAAGGCACAUGAGGAUCACCCAUGUUCCUC [salish99_ex4_r3_023] (puzzle: Exclusion 4) | – | – | – | 40.1 nM | – | –
UAUUAGCUAGGAUAUACAUGAGGAUCACCCAUGUCACGGGUCCACUCAUCCUAUGCGUGUAGAAGGAGCGACCC [JL Ceriza mod 1] (puzzle: Exclusion 3) | – | – | – | 23.6 nM | – | –
CCAACAAGCUUUUUGCUCGACAUGAGGAUCACCCAUGUAAAAUGGGUAAAUUUAAAUUUAAAUUUAUUUAAAUUUGG [-16.3, -42.5 kcal, A 35%] (Eterna round: R97, puzzle: Sensor, turn-off variant 1) | 505 nM | – | 728 nM | – | – | –
GCACGGAGUGUAGGAUAUUAGUGCGAUUAGCACUGAGAAGGACAUGAGGAUCACCCAUGUUCCUCAAUAACUCACCUUCCGUGC [Eli exng1 - 043] (Eterna round: R96, puzzle: Exclusion NG 1) | 9.73 nM | 10.6 nM | 11.5 nM | – | – | –
AGCCAGCUAGGAUAUUGCAGUUGUAACAUGAGGAUCACCCAUGUGAUAGGUGUUUAGCUCCAAGAAGGAGCGCGGC [Eronsoti] (puzzle: Exclusion 5) | – | – | – | 27.1 nM | 88.7 nM | 28 nM
CCCGGGUUUGUAGGAUAUGCCCGCCUUUGGCGGGCAGAAGGACAUGAGGAUCACCCAUGUUGUAUAAACUUGGGAUGUUCCUCG [random4] (Eterna round: R96, puzzle: Exclusion NG 1) | 30.8 nM | 31.3 nM | 40.7 nM | – | – | –
GUUGUUUAUGUAGGAUAUGCCUGGCGUGCCUUUGCAGAAGGACAUGAGGAUCACCCAUGUAACAUGAGGCUCACCCAUGUCGCG [salish99_ExNG1_r04_109] (Eterna round: R96, puzzle: Exclusion NG 1) | 438 nM | 185 nM | 277 nM | – | – | –
AGUAGGUCUACCUUGGUGGAUCUGCAUAAAGCAAGUGAUACAUGAGGAUCACCCAUGUCCUCAUUUGCUCGUCUUAU [JL turnoff v2 99.21] (puzzle: Sensor v3, turn-off variant 2) | – | – | – | 216 nM | 14 nM | 14.1 nM
UAACACCGAGGAUAUACAUUUCUCAUAAGGUGCAAAACCGCACAUGAGGAUCACCCAUGUAGAAGGCGGCAAAU [Enrabeange] (puzzle: Exclusion 2) | – | – | – | 10.5 nM | 32 nM | 14.8 nM
CUGUUCCGUGUAGGAUAUGCAUAUUCUCAUUAUGCAGAAGGACAUGAGGAUCACCCAUGUAUGUUAUUAUCAUGUGUUACAUGC [Design 7] (Eterna round: R96, puzzle: Exclusion NG 1) | 220 nM | 35.9 nM | 38.8 nM | – | – | –
UUUAAUUUUUUUUUUUUACAAGCUUUUUGCUCGUCUUAUACAUGAGGAUCACCCAUGUGGGUAAAGGGUAAAUUAUC [JMF 80] (puzzle: Sensor v3, turn-off variant 2) | – | – | – | 50.9 nM | 23 nM | 20.9 nM
AAGAUGCGGAUAGGAUAUGGAAAGAAGGAAAGACCAGAAGGAUUGGUCAUAUAACAUGAGGAUCACCCAUGUAUAUGUUGUGAA [AK ExNG1-3.1] (Eterna round: R96, puzzle: Exclusion NG 1) | – | 13 nM | – | – | – | –
CGAUGAGGAGUGAGGAUAUCGUGUUCGAAAGAACGUGAGAAGGCACAUGAGGAUCACCCAUGUGAUACUUGUCG [Omei Ex4B A15] (Eterna round: R97, puzzle: Brourd's mod of Exclusion 4) | 60.9 nM | – | 19.6 nM | – | – | –
ACUCAGUCAGGAUAUCAAUCCGCCUGUGAUACGCAGGCGGCUGAGAAGGGACAUGAGGAUCACCCAUGUAAAGA [jl-ex4-4.18 ViennaUCT mod] (Eterna round: R97, puzzle: Exclusion 4) | 538 nM | – | 129 nM | – | – | –
CUGAACUGAGGAUAUACAUGAGGAUCACCCAUGUGAUGUAGUGCACGCGUACGUGUACGUAGAAGGCAGUUCAG [Mat - Exclusion 3 - Eli Mod - D42] (Eterna round: R97, puzzle: Exclusion 3) | 56.1 nM | – | 19.8 nM | – | – | –
GGUUGGCGAGGAUAUACAUGAGGAUCACCCAUGUGAGAGAUACUAGUGAGGUCGAUUAGUAGAAGGCGCUGACG [JL-ex3-2.01 salish99 mod] (puzzle: Exclusion 3) | – | – | – | 31.1 nM | 174 nM | 32.2 nM
CCUCCACAUGAGGAUCACCCAUGUCAGGAUAUCGUGUGUGCGUUUUCGGUCUUUCGCGCGAGAAGGGACGUCUG (puzzle: Exclusion 1) | – | – | – | 28.8 nM | – | –
AGCCUCGCUGUUAGGAUAUGCAUGGAUAAGCUCCGGCAGAAGGGACAUGAGGAUCACCCAUGUAACGUAGUUUA [BmEX4 B.4] (Eterna round: R97, puzzle: Brourd's mod of Exclusion 4) | 31.8 nM | – | 25.2 nM | – | – | –
ACUUAUUGAGGAUAUACAGAUUAUUACAUGAGGAUCACCCAUGUUCUUCAAUGUAUAUAUGUAGAAGGCAGAGGAU [Mat - Exclusion 5 - JL Mod - D13] (Eterna round: R97, puzzle: Exclusion 5) | 221 nM | – | 73.7 nM | – | – | –
ACCUCACAUGAGGAUCACCCAUGUCAGGAUAUACAAGAAAAUAACCGGAAAGAACGGAGUAGAAGGGACAUAAG [Zatigeri] (puzzle: Exclusion 1) | – | – | – | 15.3 nM | 28.1 nM | 15.8 nM
